Here are results for one molecule from article PMC9923440.

The assay addresses SARS-CoV-2 spike protein ectodomain mutant S12AAA (L1145A-F1148A-L1152A) (SARS-CoV-2), P0DTC2. The assay can be described thus: pull-down. Particulars: remark: other sources report otherwise.

B1: resistance to inhibitor of cholinesterase-3 (RIC3), Q7Z5B4 29-369 (natural protein)
chain: SRGKRQEPPPTPEGKLGRFPPMMHHHQAPSDGQTPGARFQRSHLAEAFAKAKGSGGGAGGGGSGRGLMGQIIPIYGFGIFLYILYILFKLSKGKTTAEDGKCYTAMPGNTHRKITSFELAQLQEKLKETEAAMEKLINRVGPNGESRAQTVTSDQEKRLLHQLREITRVMKEGKFIDRFSPEKEAEEAPYMEDWEGYPEETYPIYDLSDCIKRRQETILVDYPDPKELSAEEIAERMGMIEEEESDHLGWESLPTDPRAQEDNSVTSCDPKPETCSCCFHEDEDPAVLAENAGFSADSYPEQEETTKEEWSQDFKDEGLGISTDKAYTGSMLRKRNPQGLE
Turning to B1, the decrease in RIC3 binding vs S12 was found to be 67%.
